Consider one protein from FireProtDB (doi:10.1529/biophysj.104.051052).

What is called Tm is the temperature at which the thermal transition is half complete.

For the data set the following is noted: Canavalia ensiformis, pH 7, Fluorescence, HEPES 25 mM, CaCl2 15 mM, reversible: yes, whole UniProt chain shown; for denaturant m value: GdnHCl.

B1: Concanavalin-A wild type, P02866 (protein)
chain: MAISKKSSLFLPIFTFITMFLMVVNKVSSSTHETNALHFMFNQFSKDQKDLILQGDATTGTDGNLELTRVSSNGSPQGSSVGRALFYAPVHIWESSAVVASFEATFTFLIKSPDSHPADGIAFFISNIDSSIPSGSTGRLLGLFPDANVIRNSTTIDFNAAYNADTIVAVELDTYPNTDIGDPSYPHIGIDIKSVRSKKTAKWNMQNGKVGTAHIIYNSVDKRLSAVVSYPNADSATVSYDVDLDNVLPEWVRVGLSASTGLYKETNTILSWSFTSKLKSNEIPDIATVV
For B1, the denaturant m value was 1.3 kcal/mol/M (7 °C); 1.6 kcal/mol/M (12 °C); 1.8 kcal/mol/M (18 °C); 2.1 kcal/mol/M (27 °C); 2.3 kcal/mol/M (30 °C); 2.2 kcal/mol/M (39 °C). In addition, the Tm (Thermal) was determined as 98.5 °C. Moreover, for the setting “Thermal”, the “heat capacity change of unfolding” value turned out to be 4.2 kcal/mol/K. Moreover, under “Thermal”, the “unfolding enthalpy (van 't Hoff)” value was found to be 179 kcal/mol.
